Source: publication PMC9482650, “Quantitative fragmentomics allow affinity mapping of interactomes” (Nature Communications, 2022)

T1: PDZD7_3, Q9H5P4
T1 sequence (Q9H5P4 857-944, limits assumed, looked up): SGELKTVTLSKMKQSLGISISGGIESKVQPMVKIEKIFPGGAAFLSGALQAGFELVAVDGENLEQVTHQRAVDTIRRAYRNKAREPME

T2: TJP3_3, O95049
T2 sequence (O95049 375-456, limits assumed, looked up): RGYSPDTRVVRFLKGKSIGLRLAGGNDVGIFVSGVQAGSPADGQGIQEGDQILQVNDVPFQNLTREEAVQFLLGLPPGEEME

T3: CARD11, Q9BXL7
T3 sequence (Q9BXL7 662-765, limits assumed, looked up): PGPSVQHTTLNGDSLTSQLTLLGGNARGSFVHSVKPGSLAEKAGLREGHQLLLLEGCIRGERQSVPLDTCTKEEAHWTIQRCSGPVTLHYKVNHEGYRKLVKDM

T4: APBA2_2, Q99767
T4 sequence (Q99767 654-744, limits assumed, looked up): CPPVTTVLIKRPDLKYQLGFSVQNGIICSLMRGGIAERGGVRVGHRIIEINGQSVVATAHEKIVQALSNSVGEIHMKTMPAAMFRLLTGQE

T5: DLG3_3, Q92796
T5 sequence (Q92796 374-475, limits assumed, looked up): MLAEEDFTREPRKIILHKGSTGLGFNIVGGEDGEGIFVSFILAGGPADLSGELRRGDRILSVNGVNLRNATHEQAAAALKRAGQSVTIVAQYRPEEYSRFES

T6: SHANK1, Q9Y566
T6 sequence (Q9Y566 658-767, limits assumed, looked up): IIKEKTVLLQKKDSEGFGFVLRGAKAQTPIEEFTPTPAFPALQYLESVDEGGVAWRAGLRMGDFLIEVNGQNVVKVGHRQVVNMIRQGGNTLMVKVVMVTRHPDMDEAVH

T7: LNX2_2, Q8N448
T7 sequence (Q8N448 334-432, limits assumed, looked up): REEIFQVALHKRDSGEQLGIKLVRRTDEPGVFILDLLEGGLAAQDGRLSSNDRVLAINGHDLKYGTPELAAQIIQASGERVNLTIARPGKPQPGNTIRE

T8: DFNB31_2, Q9P202
T8 sequence (Q9P202 274-371, limits assumed, looked up): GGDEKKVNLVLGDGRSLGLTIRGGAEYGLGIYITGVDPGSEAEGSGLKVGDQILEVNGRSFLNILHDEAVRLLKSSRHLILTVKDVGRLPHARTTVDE

T9: MPDZ_12, O75970
T9 sequence (O75970 1857-1958, limits assumed, looked up): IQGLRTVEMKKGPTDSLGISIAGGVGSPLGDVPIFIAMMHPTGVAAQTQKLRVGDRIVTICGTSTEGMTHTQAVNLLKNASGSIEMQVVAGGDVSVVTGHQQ

T10: MPP2, Q14168
T10 sequence (Q14168 180-250, limits assumed, looked up): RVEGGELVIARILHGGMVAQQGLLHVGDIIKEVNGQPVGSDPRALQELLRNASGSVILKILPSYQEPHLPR

T11: DLG3_2, Q92796
T11 sequence (Q92796 221-321, limits assumed, looked up): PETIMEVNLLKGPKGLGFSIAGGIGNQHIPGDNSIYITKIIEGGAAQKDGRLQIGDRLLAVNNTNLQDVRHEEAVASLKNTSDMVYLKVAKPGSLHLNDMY

B1: ABCA7, Q8IZY2 (peptide)
chain: DDPSTAETVL
B2: BPIFA2, Q96DR5 (peptide)
chain: QHKTQLQTLI
B3: ERBB2, P04626 (peptide)
chain: PEYLGLDVPV
B4: GJD4, Q96KN9 (peptide)
chain: HLRARKSEWV

What was measured:
Experiment in all cases: holdup assay
Design in all cases: key: below the threshold = too weak to quantify, mostly under pKd 3.1 to 4
Conditions in all cases: plain residues with an end cap or a label only (N-terminal biotin on a linker: ado-ado)
[1] = target: T1, PDZD7_3, Q9H5P4
[2] = target: GRIP2_5, Q9C0E4
Chain of GRIP2_5, Q9C0E4 (Q9C0E4 544-642): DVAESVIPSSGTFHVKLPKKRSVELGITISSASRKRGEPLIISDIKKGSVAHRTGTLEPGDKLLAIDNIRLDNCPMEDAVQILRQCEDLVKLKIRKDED

[3] = target: T2, TJP3_3, O95049
[4] = target: LDB3, O75112
Chain of LDB3, O75112 (O75112 1-94): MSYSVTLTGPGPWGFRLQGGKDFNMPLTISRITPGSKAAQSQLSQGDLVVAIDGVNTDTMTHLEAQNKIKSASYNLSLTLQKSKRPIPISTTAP

[5] = target: Inadl_8, Q8NI35
Chain of Inadl_8, Q8NI35 (Q8NI35 1425-1530): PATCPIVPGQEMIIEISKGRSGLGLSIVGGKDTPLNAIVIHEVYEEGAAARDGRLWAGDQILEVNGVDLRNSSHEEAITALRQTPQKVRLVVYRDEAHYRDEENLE

[6] = target: T3, CARD11, Q9BXL7
[7] = target: T4, APBA2_2, Q99767
[8] = target: T5, DLG3_3, Q92796
[9] = target: IL16_3, Q14005
Chain of IL16_3, Q14005 (Q14005 1107-1207): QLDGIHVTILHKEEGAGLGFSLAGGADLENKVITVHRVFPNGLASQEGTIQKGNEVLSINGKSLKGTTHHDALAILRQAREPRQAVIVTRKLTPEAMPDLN

[10] = target: GRIP2_3, Q9C0E4
Chain of GRIP2_3, Q9C0E4 (Q9C0E4 238-339): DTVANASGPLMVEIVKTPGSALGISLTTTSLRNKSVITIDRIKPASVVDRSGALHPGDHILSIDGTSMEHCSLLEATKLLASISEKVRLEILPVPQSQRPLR

[11] = target: T6, SHANK1, Q9Y566
[12] = target: FRMPD2_3, Q68DX3
Chain of FRMPD2_3, Q68DX3 (Q68DX3 1073-1166): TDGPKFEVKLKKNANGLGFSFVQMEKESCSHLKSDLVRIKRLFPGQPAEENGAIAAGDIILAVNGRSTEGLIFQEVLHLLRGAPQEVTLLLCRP

[13] = target: LIMK2, P53671
Chain of LIMK2, P53671 (P53671 143-248): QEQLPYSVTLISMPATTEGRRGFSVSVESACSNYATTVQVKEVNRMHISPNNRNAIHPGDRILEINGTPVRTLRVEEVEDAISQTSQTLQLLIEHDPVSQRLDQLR

[14] = target: TJP1_3, Q07157
Chain of TJP1_3, Q07157 (Q07157 416-512): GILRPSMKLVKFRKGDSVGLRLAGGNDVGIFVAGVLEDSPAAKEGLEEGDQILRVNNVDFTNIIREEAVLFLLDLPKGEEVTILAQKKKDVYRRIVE

[15] = target: MAGI2_6, Q86UL8
Chain of MAGI2_6, Q86UL8 (Q86UL8 1141-1229): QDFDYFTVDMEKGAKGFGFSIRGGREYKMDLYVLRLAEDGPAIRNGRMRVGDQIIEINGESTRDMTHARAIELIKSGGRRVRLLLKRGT

[16] = target: MAGI2_4, Q86UL8
Chain of MAGI2_4, Q86UL8 (Q86UL8 772-865): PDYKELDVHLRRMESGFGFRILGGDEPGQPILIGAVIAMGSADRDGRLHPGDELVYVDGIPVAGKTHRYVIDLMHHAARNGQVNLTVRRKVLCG

[17] = target: DLG4_1, P78352
Chain of DLG4_1, P78352 (P78352 62-152): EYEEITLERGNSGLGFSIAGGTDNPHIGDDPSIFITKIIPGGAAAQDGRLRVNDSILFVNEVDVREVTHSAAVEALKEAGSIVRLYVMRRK

[18] = target: MAGI3_2, Q5TCQ9
Chain of MAGI3_2, Q5TCQ9 (Q5TCQ9 398-503): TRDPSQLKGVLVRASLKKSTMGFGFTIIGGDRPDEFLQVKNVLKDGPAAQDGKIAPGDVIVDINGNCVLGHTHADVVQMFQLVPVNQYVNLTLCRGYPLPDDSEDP

[19] = target: GRIP2_4, Q9C0E4
Chain of GRIP2_4, Q9C0E4 (Q9C0E4 446-548): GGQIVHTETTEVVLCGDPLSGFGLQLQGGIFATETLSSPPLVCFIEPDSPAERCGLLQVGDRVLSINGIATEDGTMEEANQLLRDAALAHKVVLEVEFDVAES

[20] = target: T7, LNX2_2, Q8N448
[21] = target: GRIP2_6, Q9C0E4
Chain of GRIP2_6, Q9C0E4 (Q9C0E4 648-740): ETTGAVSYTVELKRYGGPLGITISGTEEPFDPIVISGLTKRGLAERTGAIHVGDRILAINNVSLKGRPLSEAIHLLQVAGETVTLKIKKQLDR

[22] = target: T8, DFNB31_2, Q9P202
[23] = target: Inadl_1, Q8NI35
Chain of Inadl_1, Q8NI35 (Q8NI35 113-229): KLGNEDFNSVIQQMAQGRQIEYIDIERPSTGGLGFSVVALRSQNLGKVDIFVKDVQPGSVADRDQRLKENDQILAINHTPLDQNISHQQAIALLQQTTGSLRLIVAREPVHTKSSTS

[24] = target: T9, MPDZ_12, O75970
[25] = target: PTPN3, P26045
Chain of PTPN3, P26045 (P26045 505-587): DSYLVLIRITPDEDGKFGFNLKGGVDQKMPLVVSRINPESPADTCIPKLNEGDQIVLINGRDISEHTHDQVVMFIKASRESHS

[26] = target: T10, MPP2, Q14168
[27] = target: T11, DLG3_2, Q92796
[28] = target: CASK, O14936
Chain of CASK, O14936 (O14936 487-570): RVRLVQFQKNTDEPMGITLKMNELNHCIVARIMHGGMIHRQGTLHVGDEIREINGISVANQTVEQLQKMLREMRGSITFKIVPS

Binder | pKd [1] | pKd [2] | pKd [3] | pKd [4] | pKd [5] | pKd [6] | pKd [7] | pKd [8] | pKd [9] | pKd [10] | pKd [11] | pKd [12] | pKd [13] | pKd [14] | pKd [15] | pKd [16] | pKd [17] | pKd [18] | pKd [19] | pKd [20] | other results
B1 | 4.98 | below the threshold | below the threshold | below the threshold | below the threshold | below the threshold | below the threshold | below the threshold | below the threshold | below the threshold | 4.74 | below the threshold | below the threshold | below the threshold | 3.83 | below the threshold | below the threshold | below the threshold | below the threshold | below the threshold | pKd [21]: below the threshold; pKd [22]: below the threshold; pKd [23]: below the threshold; pKd [24]: below the threshold; pKd [25]: 4.83; pKd [26]: below the threshold; pKd [27]: 4.37; pKd [28]: below the threshold
B2 | 5.15 | below the threshold | below the threshold | below the threshold | 3.54 | below the threshold | below the threshold | below the threshold | below the threshold | below the threshold | 4.02 | below the threshold | below the threshold | below the threshold | below the threshold | 4.05 | 4.38 | 4.54 | below the threshold | 4 | pKd [21]: below the threshold; pKd [22]: below the threshold; pKd [23]: below the threshold; pKd [24]: below the threshold; pKd [25]: 3.99; pKd [26]: below the threshold; pKd [27]: 4.08; pKd [28]: below the threshold
B3 | below the threshold | below the threshold | below the threshold | below the threshold | below the threshold | below the threshold | below the threshold | below the threshold | below the threshold | below the threshold | below the threshold | below the threshold | below the threshold | below the threshold | below the threshold | below the threshold | below the threshold | below the threshold | below the threshold | 3.96 | pKd [21]: below the threshold; pKd [22]: below the threshold; pKd [23]: below the threshold; pKd [24]: below the threshold; pKd [25]: below the threshold; pKd [26]: below the threshold; pKd [27]: 3.53; pKd [28]: below the threshold
B4 | below the threshold | below the threshold | 4.63 | below the threshold | 3.59 | below the threshold | below the threshold | below the threshold | below the threshold | below the threshold | below the threshold | below the threshold | below the threshold | 4.67 | 3.85 | 3.71 | below the threshold | 4.04 | below the threshold | 5 | pKd [21]: below the threshold; pKd [22]: below the threshold; pKd [23]: below the threshold; pKd [24]: 3.57; pKd [25]: 3.99; pKd [26]: below the threshold; pKd [27]: 4.33; pKd [28]: below the threshold
